Reference: patent US20180117168A1, “CYCLODEXTRIN-BASED POLYMERS FOR THERAPEUTIC DELIVERY” (priority 2013, published 2018)

What was measured:
[1] = system: Adjuvant-Induced Arthritis (AIA) in Lewis Rat; assay: Lewis rat adjuvant-induced arthritis (AIA) model; assay type: in vivo; conditions: for % Max Change in Paw Volume / % Max Change in body weight: day of maximum in brackets; for Spleen weight with treatment (in words): regimens of Table 4
Description: Animal and Facility: 75 female Lewis Rats at the age of 6 weeks were allowed to acclimate for 7 days in the animal facility (Cephrim Biosciences, Inc., Wellesley, Mass.). Animal housing, handling and procedures followed protocols and guidelines approved by the Institutional Animal Care and Use Committee (IACUC) of Cephrim Biosciences, Inc.
In vivo Adjuvant-Induced Arthritis (AIA) in Lewis Rat: The adjuvant used for induction of arthritis was purchased from Chondrex Inc. (Redmond, Wash.), a suspension that contains 10 mg/mL of heat-killed mycobacteria in incomplete Freund's adjuvant. On the day of induction, the rat was first anesthetized and 0.05 mL of the Complete Freund's Adjuvant (CFA) was subcutaneously injected into the sub-plantar area of the rat footpad. The needle was inserted just under the skin of the footpad pointing toward the ankle to maximize the immune response to the CFA. The rat body weight, paw volumes and clinical assessments were monitored closely after the induction. Once the secondary swelling appeared around the opposite rat paws or ankles, the rats were assigned in one of 10 groups (N=5) according to the severity of arthritis (e.g. the paw volume) and the treatments started at that time (see Table 4).
Rat arthritis was evaluated for body weight, paw volumes and clinical score once every other day. Special care including placing water and food gel supplements in the cages were given for those rats once it became difficult to move around due to their hind limb arthritis. The severity of arthritis was scored by visual inspection. Three un-injected paws were scored on a scale of 0 to 4, where 0=normal; 1, only on few digits; 2, on the paw; 3, on the ankle and 4, all swelling below ankle. The maximum score was 12. In addition to daily scores, the maximum arthritis index (MAI) was calculated at the end of the study for each rat by adding the greatest score recorded for each paw. Foot swelling was also determined objectively by measuring paw volume with a plethysmograph for the secondary arthritis (un-injected foot) and thickness using a caliper for the primary arthritis (injected foot).
Treatment Preparation: Dexamethasone stock was first dissolved in dimethyl sulfoxide at 1 mg/ml and kept in dark at room temperature. The corresponding dosing solution was prepared prior to each treatment by a 1:10 fold dilution with phosphate buffered saline (PBS). The dexamethasone dosing solution was given to the rats subcutaneously (SC) at 10 mL/kg. Tofacitinib (unconjugated parent drug) was added in 5% methylcellulose at 1 mg/mL and 0.25% of Tween-80. A homogeneous dosing suspension of tofacitinib was prepared using a mechanical homogenizer. The tofacitinib suspension was prepared daily and was given to rats by an oral gavage at 10 mL/kg. CDP-hexanoate-tofacitinib conjugate nanoparticles were kept in 4° C. until the end of the dosing period. They were given to their respective groups of rats by subcutaneous route at 10 mL/kg.

[2] = Tofacitinib dosed 5 mg PO twice daily; cited from earlier work
[3] = Drug release and stability of CDP-linker-Tofacitinib conjugate nanoparticles in PBS; assay type: physicochemical; conditions: 1x PBS pH 7.4, 37° C.; for In vitro release of free drug (24 hrs in PBS at 37° C.): free drug/conjugated drug
Protocol: The drug release and stability method experiments were run using the following CDP-linker-Tofacitinib nanoparticles: CDP-Gly-Tofac (prepared by the method described in Example 5) and CDP-Hex-Tofac) (prepared by the method described in Example 10).
A 2.5 mg/mL (with regard to polymer) solution of each CDP-linker-Tofac nanoparticle was prepared in lx PBS buffer (pH=7.4). An aliquot of 150 μL was transferred into corresponding HPLC vials. A vial containing each CDP-linker-Tofac nanoparticle in PBS pH 7.4 for each designated time point was placed in a water bath at 37° C. Samples were mixed using a water bath shaker at 100 rpm during the experiments. At each designated time point, a vial was removed for each CDP-linker-Tofac nanoparticle and processed for HPLC using a sample preparation procedure.
To prepare a sample for HPLC analysis, each vial containing 150 μL of sample was mixed with 75 μL of 0.1% formic acid in acetonitrile. If there was any precipitated material in the vial, the contents were also stirred to dissolve the precipitate. If the sample was still opaque, an additional 25 μL of 0.1% formic acid in acetonitrile was added. HPLC analysis was used to determine the amount of free Tofacitinib and the amount of conjugated Tofacitinib in the sample for a given time point.
For the HPLC analysis at each time point, the peak areas of all relevant peaks from the chromatograms were retrieved and the concentration of free and conjugated Tofacitinib was calculated. The sample degradation was calculated based on the percentage of the amount of conjugated drug with regard to the initial starting point of the experiment (at t=0). The drug release was calculated based on the sum of free Tofacitinib and Tofacitinib main degradants at each time point.

[4] = Particle size of formulated nanoparticles (particle sizer); assay type: physicochemical; conditions: nanoparticles in water after TFF and 0.22 µm filtration
Protocol: (§1) The reaction mixture was worked up by precipitating the polymer in 15 volumes of acetone (150 mL). The polymer precipitated out immediately as a lump. The solution was stirred for 30 minutes and then the slightly turbid supernatant was decanted. The polymer precipitate was stirred in […] for 30 minutes and then dissolved 70 mL of water to prepare a ˜10 mg/mL polymer concentration. The polymer dissolved smoothly in water and the polymer solution was then filtered through a 0.22 p.m PES membrane. This solution was then washed using TFF (3×30K capsules) using 10 volumes of ultrapure water at pH 3. After diafiltration, the solution was concentrated down to approximately half the volume and the concentrated solution was filtered with a 0.22 p.m cellulose nitrate membrane. The filtered solution was analyzed for particle size using a particle sizer and Tofacitinib concentration using HPLC.
as §1, with “in 90” for “70”

[5] = Pharmacokinetic study, plasma levels of free and bound Tofacitinib by HPLC/MS/MS; assay type: in vivo, Mice (C57 B16 strain); design: Cl: unit not given here; conditions: mice; for AUC / Cl / Vd / t1/2: analyte: Conjugate, single bolus 3 mg/kg; for Bioavailability via SC, of the IV based on AUC / Half-life for conjugate after SC dosing relative to the IV dose: 3 mg/kg SC vs IV; for IV AUC relative to the drug dosed PO alone: conjugate IV vs unconjugated tofacitinib PO
Protocol: Mice (C57 B16 strain) were treated by single bolus injection of each linker at 3 mg/kg. Blood samples were collected from individual animals and plasma made using EDTA as an anticoagulant. Levels of free and bound Tofacitinib were measured in the plasma samples using HPLC/MS/MS.

| Spleen weight with treatment (in words) ([1]; AIA rats) | Compound | In vitro degradation of conjugate (24 hrs in PBS at 37° C.) [3] [%] | In vitro release of free drug (24 hrs in PBS at 37° C.) [3] [%] | Dv50 [4] [nm] | Dv90 [4] [nm] | Particle PDI [4] | Zavg [4] [nm] | AUC ([5]; route IV, plasma) [µg·h/mL] | Cl ([5]; route IV, plasma) | Vd ([5]; route IV, plasma) [mL] | t1/2 ([5]; route IV, plasma) [h] | AUC ([5]; route SC, plasma) [µg·h/mL] | Cl ([5]; route SC, plasma) | Vd ([5]; route SC, plasma) [mL] | t1/2 ([5]; route SC, plasma) [h] | Half-life for conjugate after SC dosing relative to the IV dose [5] | IV AUC relative to the drug dosed PO alone [5] [×] | also measured |
| --- | --- | --- | --- | --- | --- | --- | --- | --- | --- | --- | --- | --- | --- | --- | --- | --- | --- | --- |
| declined | C[C@@H]1C[C@H]2[C@@H]3CCC4=CC(=O)C=C[C@]4(C)[C@@]3(F)[C@@H](O)C[C@]2(C)[C@@]1(O)C(=O)CO [Dexamethasone, reference compound] |  |  |  |  |  |  |  |  |  |  |  |  |  |  |  |  | AVE Spleen Weight ([1]; 1 mg/kg, q2d x 7, sc): 0.253 g; MAI (maximum arthritis index) ([1]; 1 mg/kg, q2d x 7, sc): 29; % Max Change in Paw Volume ([1]; 1 mg/kg, q2d x 7, sc): +26.5% (d13); % Max Change in body weight ([1]; 1 mg/kg, q2d x 7, sc): −13.5% (d18) |
| declined | C[C@@H]1CCN(C(=O)CC#N)C[C@@H]1N(C)c1ncnc2[nH]ccc12 [Tofacitinib, reference compound] |  |  |  |  |  |  |  |  |  |  |  |  |  |  |  |  | AVE Spleen Weight ([1]; 10 mg/kg, bid x 14, po): 0.392 g; MAI (maximum arthritis index) ([1]; 10 mg/kg, bid x 14, po): 30; % Max Change in Paw Volume ([1]; 10 mg/kg, bid x 14, po): +30.7% (D14); % Max Change in body weight ([1]; 10 mg/kg, bid x 14, po): −9.0% (d13); half-life [2]: 3 to 5 h |
|  | CDP-Tofacitinib Ethylene Glycol Monoglycinate [CDP-Glycine-Tofacitinib] | 15.23 | 9.45 | 11.4 | 19.8 | 0.418 | 26.23 | 2061.85 | 0.04 | 2.6 | 50 | 1254.162 | 0.06 | 2.4 | 28 | doubling of half-life | ~1000 | In vitro release of free drug (24 hrs in PBS at 37° C.) ([3]; listed as CDP-Glycine-Tofac): 9.45%; Bioavailability via SC, of the IV based on AUC [5]: 60%; Free levels, of the circulating conjugate ([5]; 3 mg/kg, plasma): less than 1% |

| Compound | Spleen weight with treatment (in words) ([1]; AIA rats) | In vitro degradation of conjugate (24 hrs in PBS at 37° C.) [3] [%] | In vitro release of free drug (24 hrs in PBS at 37° C.) [3] [%] | Dv50 [4] [nm] | Dv90 [4] [nm] | Particle PDI [4] | Zavg [4] [nm] | AUC ([5]; route IV, plasma) [µg·h/mL] | Cl ([5]; route IV, plasma) | Vd ([5]; route IV, plasma) [mL] | t1/2 ([5]; route IV, plasma) [h] | AUC ([5]; route SC, plasma) [µg·h/mL] | Cl ([5]; route SC, plasma) | Vd ([5]; route SC, plasma) [mL] | t1/2 ([5]; route SC, plasma) [h] | Half-life for conjugate after SC dosing relative to the IV dose [5] | IV AUC relative to the drug dosed PO alone [5] [×] | also measured |
| --- | --- | --- | --- | --- | --- | --- | --- | --- | --- | --- | --- | --- | --- | --- | --- | --- | --- | --- |
| CDP-Tofacitinib Ethylene Glycol Monohexanoate [CDP-Hexanoate-Tofacitinib] | maintained | 3.54 | 2.06 | 12.8 | 21.7 | 0.218 | 20.64 | 1030.865 | 0.07 | 2.4 | 23.2 | 569.866 | 0.132 | 8.9 | 47 | increased by two fold | ~1000 | In vitro release of free drug (24 hrs in PBS at 37° C.) ([3]; listed as CDP-Hex-Tofac): 2.06%; Bioavailability via SC, of the IV based on AUC ([5]; 3 mg/kg): 60%; Bioavailability via SC, of the IV based on AUC ([5]; listed as CDP-Hexanoate-Tofacitinib Conjugate, 3 mg/kg): approximately 60%; Levels of released drug, of the total ([5]; 3 mg/kg, plasma): approximately 5%; AVE Spleen Weight ([1]; 0.3 mg/kg, q7d x 2, sc): 0.643 g; MAI (maximum arthritis index) ([1]; 0.3 mg/kg, q7d x 2, sc): 41; % Max Change in Paw Volume ([1]; 0.3 mg/kg, q7d x 2, sc): +48.0% (d16); % Max Change in body weight ([1]; 0.3 mg/kg, q7d x 2, sc): −12.9% (d16); AVE Spleen Weight ([1]; 1 mg/kg, q7d x 2, sc): 0.642 g; MAI (maximum arthritis index) ([1]; 1 mg/kg, q7d x 2, sc): 46; % Max Change in Paw Volume ([1]; 1 mg/kg, q7d x 2, sc): +45.2% (d16); % Max Change in body weight ([1]; 1 mg/kg, q7d x 2, sc): −14.5% (d18); Paw volume as a percent of the initial paw volume (Day 1) ([1]; 3 mg/kg q7d×2 sc, after two cycles (28 days), FIG. 16): below 100%; AVE Spleen Weight ([1]; 3 mg/kg, q7d x 2, sc): 0.606 g; MAI (maximum arthritis index) ([1]; 3 mg/kg, q7d x 2, sc): 39; % Max Change in Paw Volume ([1]; 3 mg/kg, q7d x 2, sc): +42.5% (d16); % Max Change in body weight ([1]; 3 mg/kg, q7d x 2, sc): −9.3% (d13); Cumulative dose giving similar efficacy, of the cumulative dose of unconjugated tofacitinib ([1]; 3 mg/kg/week vs. 140 mg/kg/week): 2%; Ankle swelling after treatment, of initial paw volume ([1]; AIA rats, level of healthy rats): 100% |
